test: yeast display, Sf9 membrane polyspecificity reagent, FACS + sequencing; frameworks hold sequencing errors
In short: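 In a synthetic yeast display library (Saccharomyces cerevisiae BJ5465), nanobody expression was induced with galactose for 36–48 hours. FACS gates were set low and high (top ~1%) using anti-HA fluorescence for expression and streptavidin fluorescence for binding of the Sf9 membrane reagent. Each polyreactivity label is drawn from the gate of origin.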

Sequence | polyreactivity (PSR sort gate)
QVQLVESGGGLVQAGGSLRLSCAASGRTLGLYAMGWYRQAPGKERELVAAITTSGGSTSYADSVKGRFTISRDNAKNTVYLQMNSLKPEDTAVYYCAARYLSYITGTSYYWGQGTQVTVSS | low polyreactivity
QVQLVESGGGLVQAGGSLRLICDASGSTFAVYTMGLYIQAPGTEREFVAAISSTGTCTYYADSVKGRFTISRDHAKNTVYLQKNSLKPEDTAVYYCAARWLGYRISYDYWGQGTQVTVSS | high polyreactivity
QVQLVESGGGLVQAGGSLRLSCAASGRLSVFYTMGWYRQAPGKERELVAVSRTSGGRTNYADSVKGRFTISRDNAKNTVYIEMNCLKPEDSGDYYGNAEFTYRWGYWQVYLLDYWGQGTQVTVSS | low polyreactivity
QVQLVESGGGLVQAGGSLRLSCAASGSIFAVYAMGWYRQAPGKERVLVAASSTDYADSVKGRFTISRDNAKNTVYLQMNSLKTEDTAVYYCAKVGFGIPGGFYYWGQGTQVTVSS | low polyreactivity
QVQLVESGGGLVQAGGSLRLSCAASGRTFLGYAMGWYRQAPGKERELVAAINRSGGRTYYADSVKGRFTISRDNAKNTVYLQMNSMKQEDTSVYYCAAYTSYSAYDYWGQGTQVTVSS | high polyreactivity
QVQLVESGGGLVQAGGSLRLSCAASGFTSAPYAMGWYRQAPGKERELVAAISSGDTTSYADSVKGRFTISRDNAKNTVYLQMNSLKPEDTAVYYCAAVYFNVIESYKTAGYDYWGQGTQVTVSS | low polyreactivity
QVQLVESGGGLVQAGGSLRLSCAASGRISESNDMGWYRQAPGKEREVVAAISSSGGSTYYADSVKGRFTISRDNAKNTVYLQMNSLKPEETAVDYCNAVYYRTVLKIGVYEYDYWGQGTQVTVST | low polyreactivity
QVQLVESGGGLVQAGGSLRLSCAASGIIFHFNDMGWYRQAPRKERELVAAIDSTGSTNYADSVKGRFTISRDNAKNTVYLQMNSLKPEDTAVYYCAVLNHRVDSVLTRYYYWGQGTQVTVSS | low polyreactivity
QVQLVESGGGLVQAGGSLRLSCAASGLIFAEYAMGWYRQAPGKERELVARITSGGSTDYADSVKGRFTISRDNAKNTVYLQMNSLKPEDTAVYYCAARYYSQDKNASTASDFDYWGQGTQVTVSS | low polyreactivity
QVQLVESGGGLVQAGGSLRLSCAASGLIFYPYAMGWYRQAPGKERELVAGISSSGDSTYYADSVKGRFTISRDNAKNTVYLQMNSLKPEDTAVYYCNADGWYFEYWGQGTQVTVSS | low polyreactivity
QVQLVESGGGLVQAGGSLRLSCAASGPTFGVYAKGWDRQAPGKEREFVAAISSTGGSTYYADSVKGRFTISRDNAKNTVYLQMNSLKPEDTAVYYCAARLHTYGYSYGYWGQGTQVTVSS | high polyreactivity
QVQLVESGGGLVQAGGSLRLSCAASGRILSFYAMGWYRQAPGKEREFVATITWSGGSTYADSVKGRFTISRDNANNSVYLQMNSLKPEDTAVYYCNAELSNYKYDYWGQGTHVTVSS | low polyreactivity
QDQLVESGGCLVQAGGSLRLSCAASRFTFSPYTMGWYRQAPGKERELVATIRYDGTSTYYADSVKGRFTISRDNAKNTVYLQMNSLKPEDTAVYYCNADPGYYDYDYWGEGTQVTVSS | low polyreactivity
QVQLVESGGGLVQAGGSLRLSCAASGNILYFYDMGRYRQAPGKERELVAVITGGGGSTYYADSVKGRYTISRDNAKNTVYLQMNRLKPEDTAVYYWAALPWFPDEEYDYWGHGTQVTVSS | high polyreactivity
QVQLVESGGGLVQAGGSLRLSCAASGFTFTWYAMGWYRQAPGKERELVATISRSGGRTYYADSVKGRFTISRDNAKNPVYLQMNSLKPEVTAVYYCAADTRNYPRYDYWGQGTQVTVSS | high polyreactivity
QVQLVESGGGLVQAGGSLRLSCAASGSTFLWYTIGWYRQAPGKERELVADISSGGTTYYADSVKGRFTISPDNAKNTVYFQMNSLKPEDTAVYFCAKTRWPYDRWKYAFGYWGQGTQVTVSS | high polyreactivity
QVQLVESGGGLVQAGGSLRLSCAASGITIRGYAMGWYRQAPGKERELVAAINTRTSTYYADSVKGRFTISRDNAKNTVYLQMNSLKPEDTAVYYCNRDPVYYDFDYWGQGTQVTVSS | low polyreactivity
QVQLVESGGGLVQAGGSLRLSCAASGSTFYSNAMGWYRQAPGKERELVAGISGSGGSSYYADSVKGRFTFSRDNAKNTVKLQMNSLKPEDTAVYYCNARKTRSYFRFDSWGQGTQVTVSS | low polyreactivity
QVQLVESGGGLVQAGGSLRLSCAASGSTFAYNAKGWYRQAPGKERELTNYADSVKGRFTISRDNAKNTVYLQMNSLKPEDNAVYYCIAQIDFGVPDKRAWGYDYWGQGTQVTVSS | low polyreactivity
QVQLVESGGGLVQAGGSLRLSCAASGSIFEQNAMGWYRQAPGKERELVAGINEGGGSTYYADSVKGRFTISRDNAKNTVYLQMNSLKPEDTAVYYCAATLGSRWAIYDYWGQGTQVTVSS | high polyreactivity
QVQLVESGGGLVQAGGSLRLSCAPSGRTFYINAMGWYRQAPGKEREFVAAITTSGGGTYYADSVKGRFTISRDNAKNTVYLQMNSLKPEDTAVYYCNTRSRRGKDGRYDYWGQGTQVTVSS | high polyreactivity

Sequence | polyreactivity (PSR sort gate)
QVQLVESGGGLVQAGGSLRLSCAASGFTFKYYAMGWYRQAPGKERELVAAISSGATTYYADSVKGRFTISRDNAKNTVYLQMNSLKPEDTAVYYCNANRFRRYDWGQGTLVTVSS | high polyreactivity
QVQLVESGGVLVQAGGSLRLSCAASGSILHDYAMGWYRQAPGKERELVASINWSGGRTYYADSVKGRFTISRDNAKNTVYLQRNRLTPEDTAVYYCSADPSWLHVSHAPTFGLDYWGQGSQVTVSS | high polyreactivity
KVQLQESGGGLVQAGGSLRLSCAASCTISQEDWMGWYRQAPGKEREFVAAIGLGSNTNYADSLKGRFPISRDNAKNTVYLQMNSLKPEDTAVYYCAVSVWQYSDHVYRGQGTQVTVSS | low polyreactivity
QVQLVESGGGLVQAGGSLRLSCAASGRIFYANAMGWYRQAPGKERELVAAISSGGSTYYADSVKGRFTISRDNAKNTVYLKMYSLKPEDTAVYYCAASTVGQTFSYYVDTYDYWGQGTQVTVSS | low polyreactivity
QVQLVESGGGLVQAGGSLRLSCAASGRTFFIYAMGWYRQAPGKERELVAAITRGGTNYADSVKGRFTISRDNAKNTVYLQMNSLKPEDTAVYYCYTYTYAGYNYWGQGTQVTVSS | high polyreactivity
QVQLVESGGGLVQAGGSLRLSCPASGFIFRYYAMGWYRQAPGKERELVAAISWSGGSTNYADSVKGRFTISRDNAQNTVYLQINSLKPEDTALSYCADDGTVRSWGRYYHWGQGTQVTVSS | low polyreactivity
QVQLVESGGGLVQAGGSLRLICAASGSIFSFYAMGWYRQAPGKERELVAAITSDGSTDYADSVKGRFTISRDNAKNTVYLQMNCLKPEDTAVYYCAADYIVRVVSRYRYGYEYWGQGTQVTVSS | low polyreactivity
QVQLVESGGGLVQAGGSLRLSCAASGFTFSYYVMGLYRQAPGKERELVAAITSGGSTYYADSVKGRFTISRDNAKNTVYLQMNSLKPEDTAVYYCNARTYSRVTRQTYRYRPYDYWGQGTQVTVSS | high polyreactivity
QVQLVESGGGLVQAGGSLRLSCAASGINFGRYAMGWYRQAPGKERELVATITVNGGRTYYADSVKGRFTISRDNAKNTVYLQMNSLKPEDTAVYYCNAEVPGHYFDGWYFYDFDYWGQGTQVTVSS | low polyreactivity
QVQLVESGGVLVQAGGSLRLSSAASGRTFFRYTMGWYRQAPGKERELVAAISRSDGTTYYADSVKGRFTISRDSAKNTVYLEMNSLKPEDTAVYYCAKSLPSGYYYWGQGTQVTVSS | low polyreactivity
QVQLVESGGGLVQAGGSLRLRCAASGSTFNRYAMGWYRQAPWKERELVAAINWRGGRTYYADSVKGRFTISRDNAKNTVYLQMNSLKPEDTAVYYCNADVTSLTRVHGRFIVSDDDYWGQGTQVTVSS | low polyreactivity
QVQLVESGGGLVQAGGSLRLSCAASGSIFSKYAMGWYRQAAGKERELVAGISCSGGSTYYADSVNGRFTISRDNAQITVYLQINSLKPEDTAVYYCAVGIPYRGRQGYYGYYSYDYWGQGTHVTVSS | high polyreactivity
QVQLVESGGGFVQAGGSLRLSCAASGFTFQYYGMGWYRQAPGKERELVAAINWSGGRTYYADSVKGRFTISRDNAKNTVYLQMNSLKPEDTAVYYCAATRSFSGGYGYVSYDYWGQGTQVTVSS | high polyreactivity
QVQLVESGGGLVQAGGSHRLSCAASGSTFQYYAMGWYRQAPGKERELVAAISKSGGITYYADSVKGRFTISRDYAKYTVYLQMNILKPEDTAVYYCNAYSASGYDYWGQGSQVTVSS | high polyreactivity
QVQLVESGGGLVQAGGSLRLSCAASGRIFTYYAMGWFRQAPGKERELVAAISFRGSSTYYADSVKGRVTLSRDNAKNTVYLQRNSLKPEDTAVYYCAAERIARPTFDYWGQGTQVTVSS | low polyreactivity
QVQLVESGGGLVQAGGSLRLSCAASGRTFRPYAMGWYRPAPGKERELVAAISSRGSSTYYADSVKGRFTISRDNAKNTVYLQMNSLKPEDTAVYYCAARSYWGGLRYDYWGQGTQVTVSS | high polyreactivity
QVQLVESGGGLVQAGGSLRLSCAASGRTFQEYAMGWYRQAPGKERELVADISDGGSTNYADSVKGRFTISRDNAKNTVYLQMYRLKPEDTAVYYCAADQYHGVGINFRSDYDYWGQGTQVTVSS | low polyreactivity
QVQLVESGGGLVQAGGSLRLSCAASGSIFASNTMGWYRQAPGKERELVAGITKIGSSTYYADSVKGRFTISRDHAKNTVYLQMNSLKPEDTSVYYSNAYGPNIYSSRYDYWGQGTQVTLSS | low polyreactivity
QVHLVESGGGLVQAGGSLRLSCAASGSIFAGNAMGLSRQAPGKERELVAGISRSGGSTNYADSVKGRFTISRDNAKNSVYLQMNSLKPEDTAVYYCNTDPYSSAWYNYDYWGLGTQVTVSS | low polyreactivity
QVQLVESGGGLDQARGSLRLSCAASGSTFKRKPLGWYRQATGKERELVAAITQSGGSTYYADSVKGRFTISRDNAKNTVYLLMYSLKPEDTSVYYCAASYLRGRRYEYWGQGTQVTVSS | high polyreactivity
